B1: Cell cycle serine/threonine-protein kinase CDC5/MSD2 (Saccharomyces cerevisiae), P32562 (parent)
chain: MSLGPLKAINDKQLNTRSKLVHTPIKGNTADLVGKENHFKQTKRLDPNNDHHHQPAQKKKREKLSALCKTPPSLIKTRGKDYHRGHFLGEGGFARCFQIKDDSGEIFAAKTVAKASIKSEKTRKKLLSEIQIHKSMSHPNIVQFIDCFEDDSNVYILLEICPNGSLMELLKRRKVLTEPEVRFFTTQICGAIKYMHSRRVIHRDLKLGNIFFDSNYNLKIGDFGLAAVLANESERKYTICGTPNYIAPEVLMGKHSGHSFEVDIWSLGVMLYALLIGKPPFQARDVNTIYERIKCRDFSFPRDKPISDEGKILIRDILSLDPIERPSLTEIMDYVWFRGTFPPSIPSTVMSEAPNFEDIPEEQSLVNFKDCMEKSLLLESMSSDKIQRQKRDYISSIKSSIDKLEEYHQNRPFLPHSLSPGGTKQKYKEVVDIEAQRRLNDLAREARIRRAQQAVLRKELIATSTNVIKSEISLRILASECHLTLNGIVEAEAQYKMGGLPKSRLPKIKHPMIVTKWVDYSNKHGFSYQLSTEDIGVLFNNGTTVLRLADAEEFWYISYDDREGWVASHYLLSEKPRELSRHLEVVDFFAKYMKANLSRVSTFGREEYHKDDVFLRRYTRYKPFVMFELSDGTFQFNFKDHHKMAISDGGKLVTYISPSHESTTYPLVEVLKYGEIPGYPESNFREKLTLIKEGLKQKSTIVTVD
partner: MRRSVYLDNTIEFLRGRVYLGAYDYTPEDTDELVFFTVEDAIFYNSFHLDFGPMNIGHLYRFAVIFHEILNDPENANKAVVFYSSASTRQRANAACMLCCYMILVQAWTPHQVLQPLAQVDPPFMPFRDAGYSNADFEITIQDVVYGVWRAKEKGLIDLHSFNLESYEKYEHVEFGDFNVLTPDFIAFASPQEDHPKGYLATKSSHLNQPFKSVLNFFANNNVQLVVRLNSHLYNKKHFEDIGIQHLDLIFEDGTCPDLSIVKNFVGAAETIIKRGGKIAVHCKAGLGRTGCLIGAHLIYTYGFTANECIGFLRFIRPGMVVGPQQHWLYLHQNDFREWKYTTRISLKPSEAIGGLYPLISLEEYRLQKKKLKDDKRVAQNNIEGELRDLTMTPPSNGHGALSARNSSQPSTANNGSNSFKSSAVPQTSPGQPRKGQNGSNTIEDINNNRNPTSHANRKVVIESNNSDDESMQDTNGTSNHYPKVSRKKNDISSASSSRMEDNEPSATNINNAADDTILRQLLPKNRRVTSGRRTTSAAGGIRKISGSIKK

Variants of: B1
Details: with cdc14_yeast CDC14, Q00684

Row | Variant | effect of a mutation on the interaction
1 | H641A;K643M | decreasing interaction
